Experimental findings from doi:10.1101/2023.03.14.530545 (bioRxiv, 2023) are described below.

The target in data set [1] is CnTps1 ΔIDD (Cryptococcus neoformans var. grubii strain H99 | Candida albicans) (UniProt Q6IVK9). Put plainly: SEC. (In general: SEC sorts molecules by how far they enter the pores of the column.)
Data set [2] deals with the molecule itself. In words: cryo-EM structure.

For orientation: stoichiometry N means a count of units in the complex or per binding partner.

As to “CnTps1 ΔIDD (from UniProt Q6IVK9 1-208; Q6IVK9 301-669) (enzyme)”, in data set [1], the stoichiometry N was found to be 4.

B1: 6xHis-CnTps1 (full-length Cryptococcus neoformans trehalose-6-phosphate synthase) (enzyme, UniProt Q6IVK9 1-670, looked up)
chain: MTTMSNDIPNSPTSTSFTGTFSPAATAANTAANARTSDAPSPTTSSSGPKLETSKEQRLIVVSNRLPVTISKDDNGEYHFKMSSGGLVSALSGCKKTMSFTWIGWPGKDIPMQDRETVNRRLLDEYNCYPVYLSDELADSHYNGSFSNSILWPLFHYHPGEMNFDAAHWLAYREANMRFADVVSSLVQAGDMVWVQDYHLMLLPMLLRSMITGESAQGEMVRQELGRVKEGVDDTVVKEVLKMGPGVAQAEDEGVEMLDDVEEEGGEMDVKSSPKRPHYARGMSTFQKQELVAKEKGKEGIRIGFFLHTPFPSSEIYRILPVRREILLGVLQCDLIGFHTYDYARHFLSSCTRILGLETQPNGIEFDGRYCQVGTFPIGIDPNQFIEGLQKESIVKRLRSLEARFEGVKVIIGVDRLDYIKGIPQKLQALETFLTQHPEWIGKVVLVQLAIPSRQDVEEYQDLRACVNELVGRINGRFGTVESVPIHYMHKSVPFEELTAMYALADACLVTSTRDGMNLVAYEYISSQAERHGSMILSEFAGAAQSFNGSLLINPWDVQSTADAINQALTLSPQQRKTNWQKLFNYVSKYTAEAWGVSFVNELNRLSGQRPSGPTGLAGRRKSGSLSRTSSKASIQRRKSSQSGIVTGLGAAAGAAVNWAQAQVQGGSQT
In the case of B1, in data set [2], the “stoichiometry N” value was found to be 4.
